Results as given in the supplement of paper PMC7877785.
± gives the uncertainty stated by the source.

Assay: self-splicing fitness, log relative to wild type (ln ratio); higher = more splicing; Tetrahymena group I intron in knt gene, E. coli kanamycin selection, DiMSum; sequences stand for … in CUCUCU…GGAGGGAAAAGUUAUCAGGCAUGCACCUGGUAGCUAGUCUUUAAACCAAUAGAUUGCAUCGGUUUAAAAGGCAAGACCGUCAAAUUGCGGGAAAGGGGUCAACAGCCGUUCAGUACCAAGUCUCAGGGGAAACUUUGAGAUGGCCUUGCAAAGGGUAUGGUAAUAAGCUGACGGACAUGGUCCUAACCACGCAGCCAAGUCCUAAGUCAACAGAUCUUCUGUUGAUAUGGAUGCAGUUCACAGACUAAAUGUCGGUCGGGGAAGAUGUAUUCUUCUCAUAAGAUAUAGUCGGACCUCUCCUUAAUGGGAGCUAGCGGAUGAAGUGAUGCAACACUGGAGCCGCUGGGAACUAAUUUGUAUGCGAAAGUAUAUUGAUUAGUUUUGGAGUACUCGUGGUCG
In short: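 DiMSum derived fitness as the error-weighted combination of fold changes across replicates, kanamycin versus no kanamycin, normalised to wild type. E. coli BL21(DE3) held the library, which randomised all eight P1ex-region intron nucleotides within the knt kanamycin-resistance gene on pET-22b(+). Six replicate transformations grew overnight at 37°C or 30°C on LB agar with or without 25 μg/mL kanamycin, also containing 100 μg/mL carbenicillin, 50 μM IPTG and 0.2% rhamnose, and pooled colonies were amplicon-sequenced on an Illumina HiSeq 2500.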

Row | Sequence | self-splicing fitness (ln) (30 °C) | self-splicing fitness (ln) (37 °C)
1 | CGUUAGCAAUAUUACGUCGG | -0.297 ± 0.1 | 0.0154 ± 0.14
2 | CGUUAGCAAUAUUACGUGAA | -2.48 ± 0.15 | -1.45 ± 0.15
3 | CGUUAGCAAUAUUACGUUUA | -2.86 ± 0.23 | -2.63 ± 0.18
4 | CUAAAGCAAUAUUACGACUC | -4.65 ± 0.46 | -2.38 ± 0.31
5 | CUAAAGCAAUAUUACGAGUA | -3.16 ± 0.3 | -2.73 ± 0.36
6 | CUAAAGCAAUAUUACGAUAU | -3.84 ± 0.19 | -3.13 ± 0.18
7 | CUAAAGCAAUAUUACGCCUC | -3.62 ± 0.21 | -1.85 ± 0.27
8 | CUAAAGCAAUAUUACGCGUG | -1.09 ± 0.075 | 0.243 ± 0.11
9 | CUAAAGCAAUAUUACGCUGC | -3.7 ± 0.47 | -2.53 ± 0.42
10 | CUAAAGCAAUAUUACGGAAU | -3.72 ± 0.24 | -2.14 ± 0.22
11 | CUAAAGCAAUAUUACGGCAU | -3.69 ± 0.27 | -3.09 ± 0.4
12 | CUAAAGCAAUAUUACGGCGC | -2.54 ± 0.21 | -2.38 ± 0.45
13 | CUAAAGCAAUAUUACGGCGG | -0.171 ± 0.064 | 0.0633 ± 0.081
14 | CUAAAGCAAUAUUACGGGCA | -3.06 ± 0.14 | -2.54 ± 0.21
15 | CUAAAGCAAUAUUACGGGUA | -4.44 ± 0.32 | -2.3 ± 0.3
16 | CUAAAGCAAUAUUACGGUGG | -0.649 ± 0.064 | -0.0443 ± 0.08
17 | CUAAAGCAAUAUUACGUCAA | -4.32 ± 0.32 | -2.08 ± 0.28
18 | CUAAAGCAAUAUUACGUCCU | -3.29 ± 0.24 | -1.92 ± 0.26
19 | CUAAAGCAAUAUUACGUCGC | -3.42 ± 0.15 | -2.63 ± 0.23
20 | CUAAAGCAAUAUUACGUCUU | -3.95 ± 0.22 | -3.24 ± 0.3
21 | CUAAAGCAAUAUUACGUGUC | -3.88 ± 0.2 | -2.85 ± 0.25
22 | CUAAAGCAAUAUUACGUUUA | -4.12 ± 0.16 | -2.81 ± 0.17
23 | CUACAGCAAUAUUACGACCU | -4.15 ± 0.46 | -0.863 ± 0.17
24 | CUACAGCAAUAUUACGACGG | -0.839 ± 0.063 | -0.265 ± 0.095
25 | CUACAGCAAUAUUACGAGAC | -4.15 ± 0.2 | -2.59 ± 0.16

Row | Sequence | self-splicing fitness (ln) (30 °C) | self-splicing fitness (ln) (37 °C)
26 | CUACAGCAAUAUUACGAUCU | -4.26 ± 0.37 | -1.9 ± 0.45
27 | CUACAGCAAUAUUACGCAAU | -3.8 ± 0.4 | -2.86 ± 0.4
28 | CUACAGCAAUAUUACGCCAC | -3.68 ± 0.33 | –
29 | CUACAGCAAUAUUACGCCCG | 0.0629 ± 0.15 | -0.112 ± 0.14
30 | CUACAGCAAUAUUACGCCGU | -3.2 ± 0.19 | -2.06 ± 0.29
31 | CUACAGCAAUAUUACGCGAC | -1.03 ± 0.072 | -0.76 ± 0.11
32 | CUACAGCAAUAUUACGCGAU | -2.35 ± 0.095 | -0.252 ± 0.092
33 | CUACAGCAAUAUUACGCGGU | -3.49 ± 0.3 | -2.17 ± 0.28
34 | CUACAGCAAUAUUACGCGUU | -4.43 ± 0.23 | -2.37 ± 0.21
35 | CUACAGCAAUAUUACGCUAA | -2.93 ± 0.28 | -2.29 ± 0.29
36 | CUACAGCAAUAUUACGCUGA | -3.41 ± 0.28 | –
37 | CUACAGCAAUAUUACGCUGC | -2.88 ± 0.22 | -1.77 ± 0.35
38 | CUACAGCAAUAUUACGCUUA | -3.44 ± 0.19 | -2.65 ± 0.19
39 | CUACAGCAAUAUUACGGAUC | -4.11 ± 0.3 | -2.51 ± 0.26
40 | CUACAGCAAUAUUACGGGAG | -2.62 ± 0.11 | -1.96 ± 0.12
41 | CUACAGCAAUAUUACGGGUU | -3.18 ± 0.11 | -2.94 ± 0.12
42 | CUACAGCAAUAUUACGGUGG | -4.48 ± 0.21 | -2.71 ± 0.15
43 | CUACAGCAAUAUUACGUCCA | -3.07 ± 0.25 | -1.3 ± 0.24
44 | CUACAGCAAUAUUACGUGCU | – | -2 ± 0.13
45 | CUACAGCAAUAUUACGUGUC | -3.95 ± 0.14 | -2.73 ± 0.15
46 | CUAGAGCAAUAUUACGACGA | -3.35 ± 0.13 | -1.36 ± 0.13
47 | CUAGAGCAAUAUUACGACGU | -3.28 ± 0.3 | -0.837 ± 0.26
48 | CUAGAGCAAUAUUACGACUU | -4.26 ± 0.27 | -2.51 ± 0.25
49 | CUAGAGCAAUAUUACGAGAA | -2.62 ± 0.35 | -2.5 ± 0.45
